The assay has as its target HLA-A24 PRAMEp301-309 pMHC complex (human). Kind of assay: SPR, Biacore X100, Biotin CAPture Kit; A24 PRAMEp301-309 immobilised as ligand, scFv-pp at 31.25-500 nM, global fit. For orientation: In SPR one partner is held on a chip, and binding of the other changes the refractive index at the surface.

B1: #98 scFvCL-pp (scFv)
chain: QVQLVQSGAEVKKPGSSVKVSCKASGGTFSSYAISWVRQAPGQGLEWMGGIIPIFGTANYAQKFQGRVTITADESTGTAYMELSSLRSEDTAVYYCARHHSNYYYYGMDVWGQGTTVTVSRSYELTQPLSVSVALGQTARITCGGNNIGSKNVHWYQQKPGQAPVLVIYRDSNRPSGIPERFSGSNSGNTATLTISRAQAGDEADYYCQVWDSSHVFGTGTKVTVL
One may read the Kd as the constant that tells how readily two partners part at equilibrium. B1 had an equilibrium dissociation constant (Kd) of 5.3 nM.

The values are drawn from patent US20240024480A1 (MIE UNIVERSITY, published 2024).
